{
  "source": "patent US20180037632A1",
  "about": "(BIONTECH, published 2018)",
  "binders": {"B1": {"name": "MC-FA-010 (designed binder)", "chain": "GKCPYSNWTPGRGPDCRRDSDCPGRCICRGNGYCG", "modifications": "disulfide (positions not given here)", "notes": "also called soluble monovalent MC-FA-010; solitary MC-FA-010 miniprotein"}, "B2": {"name": "DOTA-(MC-FA-012)3 (designed binder)", "chain 1": "B1 chain with K2A", "chain 2": "B1 chain with K2A", "chain 3": "B1 chain with K2A", "modifications": "each of chains 1-3: N-terminal aminooxy group oxime-ligated to an oxidised serine of the anchor; three disulfides (cystine knot) per chain; anchor carries an N-terminal DOTA chelator", "notes": "Purchased from Pepscan; about 13000 Da; also called DOTA conjugated trimerized MC-FA-012; MC-FA-012 trimer; not shown: the anchor scaffold (N-terminal DOTA, three Lys-Ser units separated by GSGS linkers)"}, "B3": {"name": "Trx-MC-FA-0112 (designed binder)", "chain": "B1 chain with G13A", "modifications": "disulfide 16-28, 22-34, 3-26; also: N-terminal Trx-His6-S-tag fusion carrier, not in chain", "notes": "the position follows from the order of the rows; also called alanine scan variant G13A of MC-FA-010, Trx fusion; not shown: Thioredoxin-A, His-tag (H6), S-tag and linker of the pET-32-LibEx fusion, N-terminal of the miniprotein"}, "B4": {"name": "Trx-MC-FA-019 (designed binder)", "chain": "B1 chain with P10A", "modifications": "disulfide 16-28, 22-34, 3-26; also: N-terminal Trx-His6-S-tag fusion carrier, not in chain", "notes": "the position follows from the order of the rows; also called alanine scan variant P10A of MC-FA-010, Trx fusion; not shown: thioredoxin-A, His6 tag, S-tag and linkers of the pET-32-LibEx fusion (N-terminal carrier)"}},
  "key": {"[1]": {"biological_target": "T1, recombinant soluble human Seprase (rhuSeprase) (human, UniProt Q12884 29-760)", "T1 construct": "range 29-760; Secreted from CHO-S cells with a mouse Ig kappa secretion signal (not part of the protein in the assay); also called recombinant human Seprase; soluble fraction of human Seprase", "T1 sequence": "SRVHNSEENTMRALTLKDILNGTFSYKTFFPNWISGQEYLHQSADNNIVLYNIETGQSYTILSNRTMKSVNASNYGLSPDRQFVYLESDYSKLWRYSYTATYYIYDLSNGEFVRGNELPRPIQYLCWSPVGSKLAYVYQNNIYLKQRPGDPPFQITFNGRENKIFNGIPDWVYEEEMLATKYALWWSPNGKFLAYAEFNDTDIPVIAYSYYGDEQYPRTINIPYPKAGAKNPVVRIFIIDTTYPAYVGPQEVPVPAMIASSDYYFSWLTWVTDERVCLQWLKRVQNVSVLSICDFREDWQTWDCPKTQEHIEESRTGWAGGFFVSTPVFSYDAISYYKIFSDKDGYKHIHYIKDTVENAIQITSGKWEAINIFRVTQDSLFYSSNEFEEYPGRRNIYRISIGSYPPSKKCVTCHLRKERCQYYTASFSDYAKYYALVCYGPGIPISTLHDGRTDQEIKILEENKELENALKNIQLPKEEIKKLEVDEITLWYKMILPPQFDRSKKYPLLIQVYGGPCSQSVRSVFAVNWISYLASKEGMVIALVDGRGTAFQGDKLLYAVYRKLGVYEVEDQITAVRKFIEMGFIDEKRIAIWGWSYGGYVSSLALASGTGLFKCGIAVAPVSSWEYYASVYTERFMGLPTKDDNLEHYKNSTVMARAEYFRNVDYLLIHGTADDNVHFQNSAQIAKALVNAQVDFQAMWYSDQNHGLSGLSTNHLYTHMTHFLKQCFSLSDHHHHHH", "assay": "SPR (Biacore T100), recombinant human Seprase immobilized, 37-3000 nM MC-FA-010; Seprase on the chip; monovalent MC-FA-010, 37-3000 nM, Biacore T100", "protocol": "(§1) To obtain insights of the kinetic binding properties surface plasmon resonance (SPR) analysis was performed on a Biacore T100 device (GE Healthcare). Therefore, rhuSeprase was immobilized onto a CM5 chip via NHS/EDC mediated coupling as described by manufacturer at 10 μl/min for 420 sec. […] Kd values were calculated using the provided software.\n(§2) As a next step a more detailed analysis of binding kinetic was performed using surface plasmon resonance technology (SPR). Therefore, recombinant human Seprase was immobilized on a CMS chip (GE Healthcare) with an amino reactive surface. […] Association and dissociation data was fitted and corresponding dissociation constant and kinetic values (Kon, Koff and Kd) was calculated using the provided software of the system (FIGS. 4A and B)."}, "[2]": {"biological_target": "T1, recombinant soluble human Seprase …", "assay": "SPR (Biacore T-100), rhuSeprase immobilized on CM5, multi cycle kinetics, 1:1 fit", "protocol": "(§3) RhuSeprase (20 μg/ml in PBS, 5% mannitol, 5% trehalose) was immobilized on an amino reactive Series S Sensor Chip CM5 (GE Healthcare). For binding analysis of monomeric Microbodies rhuSeprase was loaded to a maximum of 7500 RU, for oligomeric Microbodies to a maximum of 700 RU. Monomeric Microbodies were measured using a multi cycle kinetic method in a concentration range of 3.125 to 1000 nM based on expected dissociation constant. Association step was measured over a time period of 60-90 seconds, dissociation over 420 seconds. Trimeric Mircobodies were measured using a single cycle kinetics method in a concentration range of 0.3125 to 5 nM (association for 90 seconds, dissociation 420 seconds). Binding kinetics and steady state analysis were calculated using a 1:1 binding model (Biacore T-100 Evaluation Software, GE Healthcare).\n(§4) The binding kinetics of monomeric and trimeric Seprase-binding Microbodies was determined using surface plasmon resonance spectroscopy on a Biacore T-100 system."}, "[3]": {"biological_target": "T1, recombinant soluble human Seprase …", "assay": "SPR (Biacore T-100), rhuSeprase immobilized on CM5, steady state analysis, 1:1 fit", "protocol": "as §3, §4"}, "[4]": {"biological_target": "T1, recombinant soluble human Seprase …", "assay": "SPR (Biacore T100), rhuSeprase immobilised, MC-FA-010 at 37, 111,11, 333,33, 1000 and 3000 nM, global fit; Rmax 316,6 RU; Chi² 9,42 RU²; U-value 1", "protocol": "as §1, §2"}, "[5]": {"biological_target": "T1, recombinant soluble human Seprase …", "assay": "competition ELISA on coated rhuSeprase: free MC-FA-010 (0.64 to 3167 nM) against 3 nM Trx-MC-FA-010, detected with anti-S-Tag-HRP, OD 450 nm", "protocol": "(§5) For protein based ELISA analysis 5 μg of the respective recombinant protein (rhuSeprase; streptavidin: Sigma; DPP-IV: R&D Systems, BSA: Eurobio) were immobilized per well of a MaxiSorp™ plate (Nunc) by overnight incubation in coating buffer at 4° C. After washing thrice with 300 μl PBS-T/well on a Hydrospeed plate washer (Tecan) the wells were blocked with 1×Casein solution (Sigma, diluted in PBS) for 2 h at RT. Subsequently, the wells were washed as indicated above. 100 μl of the respective Trx-miniprotein fusion diluted in PBS-T was then added and incubated for 1 h at 4° C. […] For competition ELISAs a fixed concentration of 3 nM Trx-miniprotein fusion was mixed with varying concentration (0.64-3167 nM) of solitary miniprotein before incubation. Binding of the Trx-fusion was detected after a PBS-T washing procedure using HRP coupled anti S-tag antibody as described above. Apparent Kd was calculated using Sigmaplot 10 and an one site saturation binding model for fitting of the data.\nDetection of bound miniprotein was achieved via anti S-Tag-HRP conjugated antibody (S-tag is provided by thioredoxin fusion expression system, FIG. 3A). EC₅₀ values were calculated using the one-site-saturation binding model in Sigma plot 10."}, "[6]": {"biological_target": "T1, recombinant soluble human Seprase …", "assay": "SPR (Biacore T-100)", "protocol": "as §3, §4"}, "[7]": {"biological_target": "T2, human Seprase, full length, on cells (human, UniProt Q12884 1-760)", "T2 construct": "whole, on cells; also called CHO-K1-Seprase; CHO-K1-huSeprase", "T2 sequence (looked up)": "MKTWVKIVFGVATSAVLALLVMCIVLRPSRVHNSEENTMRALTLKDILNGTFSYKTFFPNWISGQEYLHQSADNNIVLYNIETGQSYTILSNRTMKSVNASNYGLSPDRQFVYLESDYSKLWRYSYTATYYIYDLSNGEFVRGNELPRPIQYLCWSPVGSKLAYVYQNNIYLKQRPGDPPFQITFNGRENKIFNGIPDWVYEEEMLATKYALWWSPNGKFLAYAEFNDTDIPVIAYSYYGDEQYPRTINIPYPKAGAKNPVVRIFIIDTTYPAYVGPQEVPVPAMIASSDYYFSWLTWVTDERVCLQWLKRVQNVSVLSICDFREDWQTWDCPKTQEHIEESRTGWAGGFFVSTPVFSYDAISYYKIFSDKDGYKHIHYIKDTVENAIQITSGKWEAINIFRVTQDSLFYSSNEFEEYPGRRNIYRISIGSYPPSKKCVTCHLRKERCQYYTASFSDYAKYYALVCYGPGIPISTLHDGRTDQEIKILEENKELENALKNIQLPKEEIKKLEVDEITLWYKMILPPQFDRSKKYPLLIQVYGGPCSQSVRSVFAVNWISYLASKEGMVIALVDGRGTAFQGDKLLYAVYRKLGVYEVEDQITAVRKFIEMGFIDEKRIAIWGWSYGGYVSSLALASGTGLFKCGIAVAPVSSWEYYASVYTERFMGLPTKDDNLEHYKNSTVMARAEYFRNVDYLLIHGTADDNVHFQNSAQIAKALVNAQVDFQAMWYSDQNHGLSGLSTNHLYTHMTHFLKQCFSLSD", "assay": "FACS-based competition on CHO-K1-huSeprase cells, competitor Trx-MC-FA-012 detected with anti-H6-PE"}, "[8]": {"biological_target": "T1, recombinant soluble human Seprase …", "assay": "SPR (Biacore T-100), rhuSeprase immobilized on CM5, single cycle kinetics, 1:1 fit", "protocol": "as §3, §4"}, "[9]": {"biological_target": "T1, recombinant soluble human Seprase …", "assay": "direct ELISA on coated rhuSeprase; binding relative to the parental Trx-MC-FA-010", "protocol": "as §5"}, "[10]": {"biological_target": "T1, recombinant soluble human Seprase …", "assay": "direct ELISA on coated rhuSeprase, Trx fusion detected with anti-S-tag-HRP; apparent KD from one site saturation fit; Error 64,43; R2 0,9863", "protocol": "as §5"}, "[11]": {"biological_target": "T1, recombinant soluble human Seprase …", "assay": "direct ELISA on coated rhuSeprase, Trx fusion detected with anti-S-tag-HRP; apparent KD from one site saturation fit; Error 7,6; R2 0,9962", "protocol": "as §5"}},
  "note": "Where a chain is given by its changes, count along the chain named. Numbers in names are those of the source. Positions of bridges follow the written chain, without caps; N, C: chain ends. No end group written: not given here.",
  "data": [
    {"binder": "B1", "values": [
      {"measurement": "Kd", "setting": "[1]", "value": "~560", "unit": "nM"},
      {"measurement": "Kd", "setting": "[2]", "value": 149, "unit": "nM"},
      {"measurement": "koff", "setting": "[2]", "value": 0.201, "unit": "s⁻¹"},
      {"measurement": "kon", "setting": "[2]", "value": "1.53e+06", "unit": "M⁻¹ s⁻¹"},
      {"measurement": "Kd", "setting": "[3]", "value": 106, "unit": "nM"},
      {"measurement": "Kd", "setting": "[4]", "value": 562, "unit": "nM"},
      {"measurement": "koff", "setting": "[4]", "value": 0.151, "unit": "s⁻¹"},
      {"measurement": "kon", "setting": "[4]", "value": 268000, "unit": "M⁻¹ s⁻¹"},
      {"measurement": "IC50", "setting": "[5]", "value": "~20", "unit": "nM"}
    ]},
    {"binder": "B2", "values": [
      {"measurement": "times slower offrate compared to MC-FA-012", "setting": "[6]", "value": "~530", "unit": "fold"},
      {"measurement": "IC50", "setting": "[7]", "value": 43.3, "unit": "nM"},
      {"measurement": "Kd", "setting": "[3]", "value": 0.249, "unit": "nM"},
      {"measurement": "Kd", "setting": "[8]", "value": 0.0124, "unit": "nM"},
      {"measurement": "kon", "setting": "[8]", "value": "2.11e+07", "unit": "M⁻¹ s⁻¹"}
    ]},
    {"binder": "B3", "values": [
      {"measurement": "Relative Bindung im Vergleich zu Trx-MC-FA-010 [%]", "setting": "[9]", "value": 6.98, "unit": "%"},
      {"measurement": "Kd", "setting": "[10]", "value": 217, "unit": "nM"}
    ]},
    {"binder": "B4", "values": [
      {"measurement": "Relative Bindung im Vergleich zu Trx-MC-FA-010 [%]", "setting": "[9]", "value": 19.3, "unit": "%"},
      {"measurement": "Kd", "setting": "[11]", "value": 78.7, "unit": "nM"}
    ]}
  ]
}
